Results published in patent US20210155689A1 (SHANGHAI PHARMAEXPLORER, published 2021).

How the values were obtained:
[1] = molecular target: LAG-3-hFc protein (human LAG-3 extracellular region with hFc tag) (human) (UniProt P18627); assay: ELISA, inhibition of LSECtin-His binding to coated LAG-3-hFc, antibody 0.320 nM, replicate 2
[2] = molecular target: monkey LAG-3 on cells (HEK293-cLAG-3 stable cell line) (monkey); assay: FACS, HEK293-cLAG-3, antibody 1.600 nM
[3] = molecular target: LAG-3-hFc protein (human LAG-3 extracellular region with hFc tag) (human) (UniProt P18627); assay: ELISA, inhibition of LSECtin-His binding to coated LAG-3-hFc, antibody 0.064 nM, replicate 2
[4] = molecular target: LAG-3-hFc protein (human LAG-3 extracellular region with hFc tag) (human) (UniProt P18627); assay: ELISA, inhibition of LSECtin-His binding to coated LAG-3-hFc, antibody 8.000 nM, replicate 2
[5] = molecular target: LAG-3-hFc protein (human LAG-3 extracellular region with hFc tag) (human) (UniProt P18627); assay: FACS, inhibition of LAG-3-hFc binding to MHC II on Raji cells, antibody 0.000 nM
[6] = molecular target: human LAG-3 on cells (HEK293-hLAG-3 stable cell line) (human) (UniProt P18627); assay: FACS, HEK293-hLAG-3, antibody 0.064 nM
[7] = molecular target: human LAG-3 on cells (HEK293-hLAG-3 stable cell line) (human) (UniProt P18627); assay: FACS, HEK293-hLAG-3, antibody 8.000 nM
[8] = molecular target: LAG-3-hFc protein (human LAG-3 extracellular region with hFc tag) (human) (UniProt P18627); assay: FACS, inhibition of LAG-3-hFc binding to MHC II on Raji cells, antibody 2.469 nM
[9] = molecular target: LAG-3-hFc protein (human LAG-3 extracellular region with hFc tag) (human) (UniProt P18627); assay: ELISA, inhibition of LSECtin-His binding to coated LAG-3-hFc, antibody 0.013 nM, replicate 2
[10] = molecular target: monkey LAG-3 on cells (HEK293-cLAG-3 stable cell line) (monkey); assay: FACS, HEK293-cLAG-3, antibody 200.000 nM
[11] = molecular target: LAG-3-hFc protein (human LAG-3 extracellular region with hFc tag) (human) (UniProt P18627); assay: ELISA, inhibition of LSECtin-His binding to coated LAG-3-hFc, antibody 0.000 nM, replicate 2
[12] = molecular target: LAG-3-hFc protein (human LAG-3 extracellular region with hFc tag) (human) (UniProt P18627); assay: FACS, inhibition of LAG-3-hFc binding to MHC II on Raji cells, antibody 66.667 nM
[13] = molecular target: LAG-3-hFc protein (human LAG-3 extracellular region with hFc tag) (human) (UniProt P18627); assay: ELISA, inhibition of LSECtin-His binding to coated LAG-3-hFc, antibody 1.600 nM, replicate 2
[14] = molecular target: LAG-3-hFc protein (human LAG-3 extracellular region with hFc tag) (human) (UniProt P18627); assay: ELISA, inhibition of LSECtin-His binding to coated LAG-3-hFc, antibody 0.320 nM, replicate 1
[15] = molecular target: LAG-3-hFc protein (human LAG-3 extracellular region with hFc tag) (human) (UniProt P18627); assay: FACS, inhibition of LAG-3-hFc binding to MHC II on Raji cells, antibody 7.407 nM
[16] = molecular target: human LAG-3 on cells (HEK293-hLAG-3 stable cell line) (human) (UniProt P18627); assay: FACS, HEK293-hLAG-3, antibody 0.320 nM
[17] = molecular target: human LAG-3 on cells (HEK293-hLAG-3 stable cell line) (human) (UniProt P18627); assay: FACS, HEK293-hLAG-3, antibody 0.064 nM; remark: listed apart in the source
[18] = molecular target: T1, human LAG-3 on cells (HEK293-hLAG-3 stable cell line) (human, UniProt P18627 23-525); assay: FACS, HEK293-hLAG-3, antibody 0.064 nM
T1 sequence: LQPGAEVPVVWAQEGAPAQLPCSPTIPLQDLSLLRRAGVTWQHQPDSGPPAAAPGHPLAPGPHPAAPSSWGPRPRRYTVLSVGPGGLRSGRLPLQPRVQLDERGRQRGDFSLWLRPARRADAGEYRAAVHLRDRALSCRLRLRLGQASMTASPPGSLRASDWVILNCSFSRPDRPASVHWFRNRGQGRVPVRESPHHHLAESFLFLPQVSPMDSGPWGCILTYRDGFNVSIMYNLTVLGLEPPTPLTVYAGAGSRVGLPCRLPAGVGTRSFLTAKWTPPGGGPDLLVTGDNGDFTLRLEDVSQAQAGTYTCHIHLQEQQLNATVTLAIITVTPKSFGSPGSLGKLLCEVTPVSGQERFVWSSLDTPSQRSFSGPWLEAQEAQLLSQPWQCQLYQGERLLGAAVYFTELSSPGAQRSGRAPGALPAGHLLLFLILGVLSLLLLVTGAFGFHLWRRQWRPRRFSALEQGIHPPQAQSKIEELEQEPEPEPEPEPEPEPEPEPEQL
Excerpt: (§1) A. The binding of antibodies to LAG-3 expressing cells was detected by Flow cytometry (FACS), wherein the method was according to that of Example 5.

[19] = molecular target: T1, human LAG-3 on cells (HEK293-hLAG-3 …); assay: FACS, HEK293-hLAG-3, antibody 40 nM
Excerpt: as §1

[20] = molecular target: T1, human LAG-3 on cells (HEK293-hLAG-3 …); assay: FACS, HEK293-hLAG-3, antibody 1.6 nM
[21] = molecular target: T1, human LAG-3 on cells (HEK293-hLAG-3 …); assay: FACS, HEK293-hLAG-3, antibody 40 nM; remark: listed apart in the source

monkey LAG-3 on cells (HEK293-cLAG-3 stable cell line) (monkey), sequence (P18627 other isoform, or with tags, fused parts or gaps limits assumed): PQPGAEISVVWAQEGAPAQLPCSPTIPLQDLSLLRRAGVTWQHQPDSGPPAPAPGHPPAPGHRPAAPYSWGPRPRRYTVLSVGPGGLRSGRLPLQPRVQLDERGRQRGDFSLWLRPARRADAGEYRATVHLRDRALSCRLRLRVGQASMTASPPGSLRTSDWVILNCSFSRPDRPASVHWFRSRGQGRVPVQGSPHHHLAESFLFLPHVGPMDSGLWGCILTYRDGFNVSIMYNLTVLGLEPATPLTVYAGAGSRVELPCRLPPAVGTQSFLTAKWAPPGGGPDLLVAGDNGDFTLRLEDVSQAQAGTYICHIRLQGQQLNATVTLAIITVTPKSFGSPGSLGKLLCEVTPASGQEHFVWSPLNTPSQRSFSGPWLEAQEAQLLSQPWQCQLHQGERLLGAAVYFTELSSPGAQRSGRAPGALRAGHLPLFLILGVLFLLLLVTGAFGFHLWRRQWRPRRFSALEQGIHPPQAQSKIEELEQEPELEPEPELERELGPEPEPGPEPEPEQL

Molecule: hIgG control (antibody)
- Inhibition rate (%) [1]: -10.1%
- Mean fluorescence intensity [2]: 3.25
- Inhibition rate (%) [3]: -11.2%
- Inhibition rate (%) [4]: -15.1%
- Inhibition rate (%) [5]: 17.7%
- Mean fluorescence intensity [6]: 3.1
- Mean fluorescence intensity [7]: 3
- Inhibition rate (%) [8]: 2.1%
- Inhibition rate (%) [9]: -15.7%
- Mean fluorescence intensity [10]: 2.9
- Inhibition rate (%) [11]: -3.6%
- Inhibition rate (%) [12]: 12.1%
- Inhibition rate (%) [13]: -7.4%
- Inhibition rate (%) [14]: -7.9%
- Inhibition rate (%) [15]: 8.8%
- Mean fluorescence intensity [16]: 3.1
- Mean fluorescence intensity [17]: 4

B1: 405B8H3 mouse-human chimeric antibody (antibody, V domains shown)
VH: QVQLQQSGAELVRPGASVTLSCKASGYTFTDYEMHWVKQTPVHGLEWIGATDPETGNSAYNQKFKGKAIMTADKSSSTAYMELRSLTSEDSAVYYCISTGWNDWGQGTSLTVSS
VL: DIKMTQSPSSMYASLGERVTITCKASQDINSYLSWFQQKPGKSPKTLIYRADRLLDGVPSRFSGSGSGQDYSLTISSLEYGDMGIYYCLQYDEFPYTFGGGTKLEIK
notes: also called mAb103-405B8H3
- Mean fluorescence intensity [18]: 19
- Mean fluorescence intensity [19]: 266

B2: 556F6B8 mouse-human chimeric antibody (antibody, V domains shown)
VH: RVQLKQSGPGLVQPSQSLSITCTVSGFSLIKYGVHWVRQSPGEGLEWLGVIWRGGITDYNAAFMSRLSITKDNSKSQVFFKMNSLQADDTAIYYCAKWDGPLAMDYWGQGTSVTVSS
VL: DIVMTQSHKFLSTSVGDRVSITCKASQDVGTTVAWYQQKPGQSPKLLIYWASTRHTGVPDRFTGSGSGTDFTLTISNVQSEDLADYFCQQYSSYPYTFGGGTKLEIK
notes: also called mAb123-556F6B8; 556F8B8
- Mean fluorescence intensity [20]: 67
- Mean fluorescence intensity [21]: 96
